The record followed here is publication PMC2646141.

First the molecules themselves.
B1: wild type APOBEC3G prey [human] / wild type APOBEC3G bait [human] (parent)
chain 1: MKPHFRNTVERMYRDTFSYNFYNRPILSRRNTVWLCYEVKTKGPSRPPLDAKIFRGQVYSELKYHPEMRFFHWFSKWRKLHRDQEYEVTWYISWSPCTKCTRDMATFLAEDPKVTLTIFVARLYYFWDPDYQEALRSLCQKRDGPRATMKIMNYDEFQHCWSKFVYSQRELFEPWNNLPKYYILLHIMLGEILRHSMDPPTFTFNFNNEPWVRGRHETYLCYEVERMHNDTWVLLNQRRGFLCNQAPHKHGFLEGRHAELCFLDVIPFWKLDLDQDYRVTCFTSWSPCFSCAQEMAKFISKNKHVSLCIFTARIYDDQGRCQEGLRTLAEAGAKISIMTYSEFKHCWDTFVDHQGCPFQPWDGLDEHSQDLSGRLRAILQNQEN
chain 2: B1 chain 1

The assay covers variants of B1. As to the kind of experiment: yeast two-hybrid (β-galactosidase activity). Particulars: with wild type APOBEC3G (A3G) bait [human]; parent: 0.5; read off a plot.
As for chain 1 Y315A, the response amounted to 0.59 OD540.
Turning to chain 1 Y315F, the response came to 0.34 OD540.
Take chain 1 Y315L: the response turned out to be 0.5 OD540.
Take chain 1 Y124L: the response amounted to 0.042 OD540.
For chain 1 Y124F, the response worked out at 0.05 OD540.
For chain 1 Y124A, the response worked out at 0.062 OD540.
With chain 1 W127A, the response came to 0.038 OD540.
As for chain 1 W127Y, the response was 0.031 OD540.
